# Reference: PMC5484534 (Molecular cell, 2017)
# B1: PPIG: human nuclear cyclophilin (protein, UniProt Q13427 1-754, looked up)
# Peptidyl-prolyl cis-trans …: MGIKVQRPRCFFDIAINNQPAGRVVFELFSDVCPKTCENFRCLCTGEKGTGKSTQKPLHYKSCLFHRVVKDFMVQGGDFSEGNGRGGESIYGGFFEDESFAVKHNKEFLLSMANRGKDTNGSQFFITTKPTPHLDGHHVVFGQVISGQEVVREIENQKTDAASKPFAEVRILSCGELIPKSKVKKEEKKRHKSSSSSSSSSSDSDSSSDSQSSSDSSDSESATEEKSKKRKKKHRKNSRKHKKEKKKRKKSKKSASSESEAENLEAQPQSTVRPEEIPPIPENRFLMRKSPPKADEKERKNRERERERECNPPNSQPASYQRRLLVTRSGRKIKGRGPRRYRTPSRSRSRDRFRRSETPPHWRQEMQRAQRMRVSSGERWIKGDKSELNEIKENQRSPVRVKERKITDHRNVSESPNRKNEKEKKVKDHKSNSKERDIRRNSEKDDKYKNKVKKRAKSKSRSKSKEKSKSKERDSKHNRNEEKRMRSRSKGRDHENVKEKEKQSDSKGKDQERSRSKEKSKQLESKSNEHDHSKSKEKDRRAQSRSRECDITKGKHSYNSRTRERSRSRDRSRRVRSRTHDRDRSRSKEYHRYREQEYRRRGRSRSRERRTPPGRSRSKDRRRRRRDSRSSEREESQSRNKDKYRNQESKSSHRKENSESEKRMYSKSRDHNSSNNSREKKADRDQSPFSKIKQSSQDNELKSSMLKNKEDEKIRSSVEKENQKSKGQENDHVHEKNKKFDHESSPGTDEDKSG
# B2: CWC27: human nuclear cyclophilin (protein, UniProt Q6UX04 2-472, looked up)
# Spliceosome-associated …: SNIYIQEPPTNGKVLLKTTAGDIDIELWSKEAPKACRNFIQLCLEAYYDNTIFHRVVPGFIVQGGDPTGTGSGGESIYGAPFKDEFHSRLRFNRRGLVAMANAGSHDNGSQFFFTLGRADELNNKHTIFGKVTGDTVYNMLRLSEVDIDDDERPHNPHKIKSCEVLFNPFDDIIPREIKRLKKEKPEEEVKKLKPKGTKNFSLLSFGEEAEEEEEEVNRVSQSMKGKSKSSHDLLKDDPHLSSVPVVESEKGDAPDLVDDGEDESAEHDEYIDGDEKNLMRERIAKKLKKDTSANVKSAGEGEVEKKSVSRSEELRKEARQLKRELLAAKQKKVENAAKQAEKRSEEEEAPPDGAVAEYRREKQKYEALRKQQSKKGTSREDQTLALLNQFKSKLTQAIAETPENDIPETEVEDDEGWMSHVLQFEDKSRKVKDASMQDSDTFEIYDPRNPVNKRRREESKKLMREKKERR
# B3: PPWD: human nuclear cyclophilin (protein, UniProt Q96BP3 2-646, looked up)
# Peptidylprolyl isomerase …: AAESGSDFQQRRRRRRDPEEPEKTELSERELAVAVAVSQENDEENEERWVGPLPVEATLAKKRKVLEFERVYLDNLPSASMYERSYMHRDVITHVVCTKTDFIITASHDGHVKFWKKIEEGIEFVKHFRSHLGVIESIAVSSEGALFCSVGDDKAMKVFDVVNFDMINMLKLGYFPGQCEWIYCPGDAISSVAASEKSTGKIFIYDGRGDNQPLHIFDKLHTSPLTQIRLNPVYKAVVSSDKSGMIEYWTGPPHEYKFPKNVNWEYKTDTDLYEFAKCKAYPTSVCFSPDGKKIATIGSDRKVRIFRFVTGKLMRVFDESLSMFTELQQMRQQLPDMEFGRRMAVERELEKVDAVRLINIVFDETGHFVLYGTMLGIKVINVETNRCVRILGKQENIRVMQLALFQGIAKKHRAATTIEMKASENPVLQNIQADPTIVCTSFKKNRFYMFTKREPEDTKSADSDRDVFNEKPSKEEVMAATQAEGPKRVSDSAIIHTSMGDIHTKLFPVECPKTVENFCVHSRNGYYNGHTFHRIIKGFMIQTGDPTGTGMGGESIWGGEFEDEFHSTLRHDRPYTLSMANAGSNTNGSQFFITVVPTPWLDNKHTVFGRVTKGMEVVQRISNVKVNPKTDKPYEDVSIINITVK
# B4: PPIL1: human nuclear cyclophilin (protein, UniProt Q9Y3C6 1-166, looked up)
# Peptidyl-prolyl cis-trans …: MAAIPPDSWQPPNVYLETSMGIIVLELYWKHAPKTCKNFAELARRGYYNGTKFHRIIKDFMIQGGDPTGTGRGGASIYGKQFEDELHPDLKFTGAGILAMANAGPDTNGSQFFVTLAPTQWLDGKHTIFGRVCQGIGMVNRVGMVETNSQDRPVDDVKIIKAYPSG
# B5: PPIL3: human nuclear cyclophilin (protein, UniProt Q9H2H8 2-161, looked up)
# Peptidyl-prolyl cis-trans …: SVTLHTDVGDIKIEVFCERTPKTCENFLALCASNYYNGCIFHRNIKGFMVQTGDPTGTGRGGNSIWGKKFEDEYSEYLKHNVRGVVSMANNGPNTNGSQFFITYGKQPHLDMKYTVFGKVIDGLETLDELEKLPVNEKTYRPLNDVHIKDITIHANPFAQ
# modifications: His6-GST tag
# B6: PPIL2: human nuclear cyclophilin (protein, UniProt Q13356 1-520, looked up)
# RING-type E3 …: MGKRQHQKDKMYITCAEYTHFYGGKKPDLPQTNFRRLPFDHCSLSLQPFVYPVCTPDGIVFDLLNIVPWLKKYGTNPSNGEKLDGRSLIKLNFSKNSEGKYHCPVLFTVFTNNTHIVAVRTTGNVYAYEAVEQLNIKAKNFRDLLTDEPFSRQDIITLQDPTNLDKFNVSNFYHVKNNMKIIDPDEEKAKQDPSYYLKNTNAETRETLQELYKEFKGDEILAATMKAPEKKKVDKLNAAHYSTGKVSASFTSTAMVPETTHEAAAIDEDVLRYQFVKKKGYVRLHTNKGDLNLELHCDLTPKTCENFIRLCKKHYYDGTIFHRSIRNFVIQGGDPTGTGTGGESYWGKPFKDEFRPNLSHTGRGILSMANSGPNSNRSQFFITFRSCAYLDKKHTIFGRVVGGFDVLTAMENVESDPKTDRPKEEIRIDATTVFVDPYEEADAQIAQERKTQLKVAPETKVKSSQPQAGSQGPQTFRQGVGKYINPAATKRAAEEEPSTSATVPMSKKKPSRGFGDFSSW
# Tests used:
# BMAL1 TAD = assay: Cyclophilin acceleration of TAD switch isomerization by 15N-1H ZZ-exchange NMR; type: biochemical, mouse; details: room temperature (22.68°C), 400 μM 15N BMAL1 TAD + 100 μM cyclophilin, 20 mM HEPES pH 7.0 (pH 7.5 for His6GST-PPIL3), 100 mM NaCl, 2 mM TCEP
# [1] = ref Davis et al., 2010; cited from earlier work
Molecule,"activity on TAD switch isomerization, in words (BMAL1 TAD)",activity on generic peptide substrates [1]
B1,significantly increased the rate of isomerization in BMAL1,–
B2,either not active on the TAD or had activity that was below the detection limit,lack activity on generic peptide substrates
B3,either not active on the TAD or had activity that was below the detection limit,–
B4,significantly increased the rate of isomerization in BMAL1,–
B5,significantly increased the rate of isomerization in BMAL1,–
B6,either not active on the TAD or had activity that was below the detection limit,lack activity on generic peptide substrates
